Drawing on a protein production outcome set (Wang et al. 2014), this text covers protein production for nine sequences.

A short description of the series: label from the status in PepcDB records.

For “MARQSTKFSDKFLRALKPQEKPYDIREGDGFGVRVFPSGARSFFYMYHFDGKRRFLNLGKYPQLSLADARQKHRDAVSQHAKGIDPLAATQEQKRERREAITVADLIDEYVKNWAKVYKVERSATEDERALSKDVLPYWGKRKAKDIKRTDAIALLERIVRRGSPGQARNILKVGRKMYEFAIERKYVEANPFSRISKAVPATMPRTRSRVLTESEIKYIWSAIDKSAGSDETKRALKLILVTAQRPGEVIGMHRREIDGEWWTIPPERIKTEKDRTRSNSVGPQPHRVYLSPLALELIGDKDGYIFESPRGGAMDSKALSHVVHAAPLVPELVRDTEGHVFAGPCGPVAAKALMQLLEKEIAYPDKEKYYGLTRWTPHDLRRTARTRMSAINIPTRHAERVLNHTLPGIQKTYDLYRYDPQKKAALTKWAAYLEELLR”, the protein production entry is on record as “failed”.
As for “MARRSICEERRQQAGAGQPRGRCSDWQRRQRTLRPDATPMPADGRPRCSCLFSLLLSDPDLWKSWMSSQTAAERELAELLVESLNLEDVQPADIDPEAPLFNTGLGLDSIDALELALAISKRYGFQLRSDNDENRRIFASLRALSAHVQANKTV”, the entry is “failed”; as for “MARSEGNRPRHRAVPQPSRIRKRLSRGVMTLVSVVALLMTGAGYWVAHGALGGITISQALTPEDPRSSGNNMNILLIGLDSRKDQEGNDLPWSVLKQLHAGDSDDGGYNTNTLILVHVGADGKVVAFSIPRDDWVPFTGVPGYNHIKIKEAYGLTKQYVAEQLANQGVSDRKELETRGREAARAATLRAVRSLTGVPIDYFAEINLAGFYDLAQTLGGVDVCLNHAVYDSYSGADFPAGRQRLNAAQALAFVRQRHGLDNGDLDRTHRQQAFLSSVMRELQDSGTFTNLDRLDNLMAVARKDVVLSAGWDEDLFRRMGDLAGGNVEFRTLPVVRYDNIDGQDVNIIDPTAIRAEVAAAFGSAPPTSQTAAAAKPNPSTVVDVVNAGSISGLASQVSGALLKRGYTAGQVRDRESGDPFTTAIEYGAGAETDAQNVADLLGIDAPNHPDPAVAPGHIRVTVDTNFSLPAPDEATAAATSTETSTYPLYGGGTTTDPTPDQGAPIDGGGVPCVN”, “failed”.
The same measure for “MARSFSLAKNPLFWQVAIAGIILDQLSKLWVSQAMDPVGTTWPLWSGVFHFTYVLNTGAAFSAFRGGAGWLKWLSLAVSVGLIIFAGKVPLRKLEQLGYGCILAGAVGNGIDRFLFGHVIDFLDFRLINFPIFNLADVSINIGIAALLWASFFPVSSRKVD”: “failed”.
Consider “MARTFRSLRNFNYRVWASGAIVSNIGTWMQRTAQDWLVLTELTHHNATAVGIVMSLQFGPQMLLLPLTGYAADHFNRRKLLFITQTAMGLLALGLGLMTVTGLVRLWHVYVFALLLGCVTAFDAPARQTFVSDLVGEEDLPNAVALNSTSFNGARMIGPAITGLLIASIGTGWVFLINALSFVPVIGALRMLRQHELHLKPPAQRSRGSFLEGFRYVWKRPDLKAALFMLFLIGTFGLNFPIFISTMSVSAFHAGAGQYGLLSSTMAIGSVTGTLLAARRARPRMAILVGAATIFGVGCMFGALMPNAVLFGLTLAVIGASTQTFTTSTNSLVQISTEPAMRGRVIAILLAIALGTTPLGAPVVGWVADRFGPRWALGVGAASGFAAALVGLFYLMRNRNLRFYIETGRLRYSIDKPRQTAFMAAPAASVPNVVMSKAEDE”, for which the protein production result is on record as “failed”.
Turning to “MARYRGAVERLERRFGVSLALKGERRLSGKSALDKRAYGPGQHGQRRAKTSDYGLQLKEKQKAKMMYGISEKQFRSIFVEANRLDGNTGENLIRLIERRLDNVVYRMGFATTRSSARQLVTHGHVLVDGKRLDIPSYFVRSGQKIEIKEKTKSNSQVVRAMELTAQTGIVPWIDVEKDKKYGIFTRYPEREEVVVPIEERLIVELYSK”, the protein production result is “failed”.
As for “MASADKLINTDVPEKDVFAFHFLQSLSNLRKQNPFDTPDQKNYRVRKIKKAAYVSMARAAGGSSRLWSRALLRRADKDDNKIVRFSRRKWKISSKRRRSNQRAPVVEEAAERLRNLVPGGGGMETSKLMEETAHYIKCLSMQVKVMQCLVDGLSPK”, the entry is “failed”.
Regarding “MASDPITTQEFSPRQNAVLDQALRLLVEGGEKALTTSGLARAANCSKESLYKWFGDRDGLLAAMITFQQSKVRTFEKAGDRVSAPQLADHLEVFAHDLLDVLAGDVSLALNRLAIGQASRDGSKLGDLLLERGRRQIDRRARGLIEAGRRSGYLRFDDAEEAYRSFYGLIVSDLHVRMLLGEAPDKDFSARAKKAVVAFLTLYGTEKVHSELGGKVA”, the protein production result is listed as “not failed”.
Consider “MASDTPGFYMDKLNKYRQMHGVAITYKELSTSGPPHDRRFTFQVLIDEKEFPEAKGRSKQEARNAAAKLAVDILDNENKVDCHT”, for which the protein production result is reported as “not failed”.
